This data set concerns the molecule itself. The data set is described as follows: SEC. Background: Size exclusion chromatography separates by hydrodynamic size, large species first.

B1: full-length MmpL4 (M. tuberculosis) (natural protein)
chain: MSTKFANDSNTNARPEKPFIARMIHAFAVPIILGWLAVCVVVTVFVPSLEAVGQERSVSLSPKDAPSFEAMGRIGMVFKEGDSDSFAMVIIEGNQPLGDAAHKYYDGLVAQLRADKKHVQSVQDLWGDPLTAAGVQSNDGKAAYVQLSLAGNQGTPLANESVEAVRSIVESTPAPPGIKAYVTGPSALAADMHHSGDRSMARITMVTVAVIFIMLLLVYRSIITVVLLLITVGVELTAARGVVAVLGHSGAIGLTTFAVSLLTSLAIAAGTDYGIFIIGRYQEARQAGEDKEAAYYTMYRGTAHVILGSGLTIAGATFCLSFARMPYFQTLGIPCAVGMLVAVAVALTLGPAVLHVGSRFGLFDPKRLLKVRGWRRVGTVVVRWPLPVLVATCAIALVGLLALPGYKTSYNDRDYLPDFIPANQGYAAADRHFSQARMKPEILMIESDHDMRNPADFLVLDKLAKGIFRVPGISRVQAITRPEGTTMDHTSIPFQISMQNAGQLQTIKYQRDRANDMLKQADEMATTIAVLTRMHSLMAEMASTTHRMVGDTEEMKEITEELRDHVADFDDFWRPIRSYFYWEKHCYGIPICWSFRSIFDALDGIDKLSEQIGVLLGDLREMDRLMPQMVAQIPPQIEAMENMRTMILTMHSTMTGIFDQMLEMSDNATAMGKAFDAAKNDDSFYLPPEVFKNKDFQRAMKSFLSSDGHAARFIILHRGDPQSPEGIKSIDAIRTAAEESLKGTPLEDAKIYLAGTAAVFHDISEGAQWDLLIAAISSLCLIFIIMLIITRAFIAAAVIVGTVALSLGASFGLSVLLWQHILAIHLHWLVLAMSVIVLLAVGSDYNLLLVSRFKQEIGAGLKTGIIRSMGGTGKVVTNAGLVFAVTMASMAVSDLRVIGQVGTTIGLGLLFDTLIVRSFMTPSIAALLGRWFWWPLRVRSRPARTPTVPSETQPAGRPLAMSSDRLG
Regarding B1, the binding result was “binds”.

For the origin of these results see publication PMC11850643 (Nature Communications, 2025).
